Data reported in doi:10.1101/2020.05.26.100743 (bioRxiv, 2020).

How the values were obtained:
Test in all cases: SPR
[1] = target: VH1 C110S mutant (His-MBP-VH1 fusion) (vaccinia virus Copenhagen strain, UniProt P20495 1-171, C110S)
[2] = target: VH1 K20A mutant (His-MBP-VH1 fusion) (vaccinia virus Copenhagen strain, UniProt P20495 1-171, K20A)
[3] = target: VH1 K22A mutant (His-MBP-VH1 fusion) (vaccinia virus Copenhagen strain, UniProt P20495 1-171, K22A)
[4] = target: VH1 M60A mutant (His-MBP-VH1 fusion) (vaccinia virus Copenhagen strain, UniProt P20495 1-171, M60A)
[5] = target: VH1 T25A mutant (His-MBP-VH1 fusion) (vaccinia virus Copenhagen strain, UniProt P20495 1-171, T25A)
[6] = target: VH1 T59A mutant (His-MBP-VH1 fusion) (vaccinia virus Copenhagen strain, UniProt P20495 1-171, T59A)

Measured: binding result

VDADEYLIPQQ [EGFR pTyr peptide 986-VDADEpYLIPQQ-998 (11-mer)]
binds: all assays above
